Source: US20220170028A1, “NOVEL INTERLEUKIN-2 VARIANTS AND BIFUNCTIONAL FUSION MOLECULES THEREOF” (Cugene Inc, priority 2019, published 2022)
Entries after “also recorded” stand apart in the source; their conditions may differ.

How the values were obtained:
[1] = Transient expression level of IL-2 Fc fusion constructs in HEK-293F cells; conditions: for expression level (titer): transiently in HEK-293F cells, Example 4
Description: The constructs were produced by co-transfecting HEK293-F cells growing in suspension with the mammalian expression vectors using polyethylenimine (PEI, 25,000 MW linear, Polysciences). If there were two or more expression vectors, the vectors were transfected in a 1:1 ratio. For transfection, HEK293 cells were cultivated in serum free FreeStyle™ 293 Expression Medium (ThermoFisher). For production in 1000 ml shaking flasks (working volume 330 mL), HEK293 cells were seeded at a density of 0.8×10^6 cells/ml 24 hours before transfection. A total of 330 μg of DNA expression vectors were mixed with 16.7 ml Opti-mem Medium (ThermoFisher). After addition of 0.33 mg PEI diluted in 16.7 ml Opti-mem Medium, the mixture was vortexed for 15 sec and subsequently incubated for 10 min at room temperature. The DNA/PEI solution was then added to the cells and incubated at 37° C. in an incubator with 8% CO2. Sodium butyrate (Millipore Sigma) was added to the cells at day 4 at a final concentration of […] to help sustain protein expression. After 6 days cultivation, supernatant was collected for purification by centrifugation for 20 min at 2200 rpm. The solution was sterile filtered (0.22 μm filter, Corning). The secreted protein was purified from cell culture supernatants using Protein A affinity chromatography.
(§1) S125I substitution was thus introduced into a number of IL-2 variant Fc fusion molecules. The constructs harboring Ile-125 substitution in IL-2 were expressed using the same vector and in the same culturing conditions as their Ser-125 counterparts and purified using MabSelectSure. The expression level in mg/L and purity assessed by SEC chromatography in aggregation % of exemplary molecules are summarized in Table 6. The two molecules in the same row of Table 6 share the same other amino acid substitution(s) and differ only at residue 125 with either serine or isoleucine. As an example, the SEC chromatogram and SDS-PAGE pictures of P-0447 (SEQ ID NO: 173) and its Ile-125 counterpart P-0511 (SEQ ID NO: 213) were further illustrated in FIGS. 1D and 1E.

[2] = test system: CD4+ Treg vs CD4+ Tconv cells; experiment: STAT5 phosphorylation, selectivity / activity profile Treg versus CD4+ Tconv cells, human PBMC; assay type: cell-based
From the text: (§2) Single amino acid substitutions were introduced to IL-2 at positions corresponding to amino acids interacting with receptor subunit(s) β or γ or βγ. These substitutions were aimed to reduce IL-2 signaling capacity through the intermediate affinity IL-2Rβγ complex and confer signaling specificity from the high affinity IL-2Rαβγ. IL-2 variants containing single amino acid substitutions were examined for their ability to differentially stimulate STAT5 phosphorylation in CD4 positive Treg and Tconv cells. STAT5 is known to be involved in the downstream signaling cascade upon IL-2 binding to the transmembrane IL-2 receptors. The phosphorylation of STAT5 in defined lymphocyte subpopulations was measured using fresh human peripheral blood mononuclear cells (PBMC) and the forkhead transcription factor FOXP3 was used to identify the Treg population in FACS analysis.
(§3) Briefly, human PBMC were isolated by Ficoll-Hypaque centrifugation from the buffy coat of a healthy donor. PBMC were starved in serum-free MACS buffer at 4° C. for 1 hour. 2×10^5 PBMC were then treated with serial dilutions of test compounds for 30 min at 37° C. Cells were fixed and permeabilized with Foxp3/Transcription Factor Staining Buffer Set (EBIO) by incubating with 1× Foxp3 fixation/permeabilization working solution for 30 minutes and washing with 1× permeabilization buffer. Cells were additionally fixed with Cytofix buffer and permeabilized with Perm Buffer III (BD Biosciences) and then washed. After blocking Fc receptors by adding human TruStain FcX (1:50 dilution), cells were stained with a mixture of anti-CD25-PE, anti-FOXP3-APC, anti-pSTAT5-FITC, and anti-CD4-PerCP-Cy5.5 antibodies at concentrations recommended by the manufacturer for 45 minutes at room temperature. Cells were collected by centrifugation, washed, resuspended in FACS buffer, and analyzed by flow cytometry. The flow cytometry data was gated into CD4+/Foxp3+/CD25^high and CD4+/Foxp3−/CD25^low groups for the Treg and CD4 conventional T cell subsets, respectively. Data are expressed as a percent of pStat5 positive cells in gated population.
The S125I substitution was then introduced into wild-type IL-2 or IL-2 variants that already harbored 1 or 2 mutations targeting receptor subunit(s) β or γ or βγ. The resulting IL-2 variants containing isoleucine at position 125 were tested for their ability to stimulate STAT5 phosphorylation in Treg and Tconv cells in comparison with their respective serine counterparts at position 125. Table 7 lists the potency and selectivity of IL-2 variants in Treg cells. The two molecules in the same row of Table 7 share the same other amino acid substitution(s) and differ only at position 125 with either serine or isoleucine.

[3] = Aggregate content by size-exclusion chromatography after Protein A purification; assay type: physicochemical; conditions: for Aggregation % (SEC): after MabSelectSure; for aggregates / high-molecular weight species (SEC): Example 4
Description: For affinity chromatography each supernatant was loaded on a HiTrap MabSelectSure column (CV=5 mL, GE Healthcare) equilibrated with 25 ml phosphate buffered saline, pH 7.2 (ThermoFisher). Unbound protein was removed by washing with 5 column volumes PBS, pH 7.2 and target protein was eluted with 25 mM sodium citrate, 25 mM sodium chloride, pH 3.2. Protein solution was neutralized by adding 3% of 1 M Tris pH 10.2. Ion exchange chromatography or mix-mode chromatography, including but not limited to CaptoMMC (GE Healthcare), ceramic hydroxyapatite, or ceramic fluoroapatite (Bio-Rad) was also utilized to polish the Protein A material as needed. Target protein was concentrated with an Amicon®Ultra-15 concentrator 10 KDa NMWC (Merck Millipore Ltd.)
The purity and molecular weight of the purified constructs were analyzed by SDS-PAGE with and in the absence of a reducing agent and staining with Coomassie (Imperial® Stain). The NuPAGE® Pre-Cast gel system (4-12% or 8-16% Bis-Tris, ThermoFisher) was used according to the manufacturer's instructions. The protein concentration of purified protein samples was determined by measuring the UV absorbance at 280 nm (Nanodrop Spectrophotometer, ThermoFisher) divided by the molar extinction coefficient calculated on the basis of the amino acid sequence. The aggregate content of the constructs was analyzed on an Agilent 1200 high-performance liquid chromatography (HPLC) system. Samples were injected onto an AdvanceBio size-exclusion column (300 Å, 4.6×150 mm, 2.7 μm, LC column, Agilent) using 150 mM sodium phosphate, pH 7.0 as the mobile phase at 25° C.
as §1

[4] = test system: STAT5 phosphorylation in CD4+ Treg cells; experiment: STAT5 phosphorylation in CD4+ Treg cells, human PBMC assay by FACS; assay type: cell-based
From the text: as §2, §3

[5] = test system: STAT5 phosphorylation in CD4+ Tconv cells; experiment: STAT5 phosphorylation in CD4+ Tconv cells, human PBMC assay by FACS; assay type: cell-based
From the text: as §2, §3

Substance	Expression ([1]; Serine-125 constructs) [mg/L]	expression level (titer) [1]	potency in Treg cells relative to CD4+ Tconv cells [2]	Treg Selectivity ([2]; Serine-125 constructs)	Aggregation % (SEC) ([3]; Serine-125 constructs) [%]	aggregates / high-molecular weight species (SEC) [3] [%]	STAT5 phosphorylation activity in Treg cells (in words) [4]	STAT5 phosphorylation activity in CD4+ Tconv cells (in words) [5]	activity profile / selectivity window Treg over CD4+ Tconv (in words) [2]	Expression ([1]; Isoleucine-125 constructs) [mg/L]	Treg Selectivity ([2]; Isoleucine-125 constructs)	Aggregation % (SEC) ([3]; Isoleucine-125 constructs) [%]
P-0250: wild type IL-2 Fc fusion protein, C-terminal fusion, SEQ ID NO: 71 [reference compound]	3.1	around 3 mg/L	about 250 fold	Yes	25.7							
P-0317: IL-2 D20I/N88R Fc fusion, SEQ ID NO: 96		similarly low level				7.5						
P-0318: IL-2 D20I/N88I Fc fusion, SEQ ID NO: 97		similarly low level				65						
P-0363: IL-2 D20T Fc fusion, SEQ ID NO: 74	1.4				29.4		ability to induce STAT5 phosphorylation	largely diminished or abolished	some or significant biased selective window			
P-0364: IL-2 D20E Fc fusion, SEQ ID NO: 75	0.7			Yes	21.1		ability to induce STAT5 phosphorylation	largely diminished or abolished				
P-0372: IL-2 L19Y Fc fusion, SEQ ID NO: 81	4.0	4.0 mg/L		Yes	21.7	21.7	minimally impacted the pSTAT5 activation potency	largely retained the biological activity	modestly improved selective window			
P-0419: IL-2 L19Y/Q126E Fc fusion, SEQ ID NO: 105	6.7			Yes	33.8		mainly reserved; also recorded: retained comparable potency; also recorded: significant potency	varied significantly; also recorded: largely abolished	significantly widened; also recorded: very comparable to that of the Benchmark-1 molecule; also recorded: comparable activity profile to Benchmark-1			
P-0424: IL-2 L19H Fc fusion, SEQ ID NO: 153	7.7			Yes	21.4			reduced	selective activation of Treg cells over CD4+ Tconv cells			
P-0425: IL-2 L19D Fc fusion, SEQ ID NO: 154	2.6			Yes	32.6		slightly reduced potency	significantly impaired	wide window for selective targeting of Treg subset			
P-0447: IL-2 L19H/Q126E Fc fusion, SEQ ID NO: 173	7.3			Yes	23.7		robust biological activity; also recorded: significant potency	nearly completely abolished; also recorded: largely abolished	on par with Benchmark-2			
P-0471: IL-2 L19Y/S125I Fc fusion, SEQ ID NO: 183		19.3 mg/L				1	retained comparable potency	varied significantly		19.3	Yes	1.0
P-0491: IL-2 L19H/S125I Fc fusion, SEQ ID NO: 190							slightly increased potency		without altering Treg selectivity	36.7	Yes	0.6
P-0492: IL-2 L19D/S125I Fc fusion, SEQ ID NO: 191										13.6	Yes	0
P-0493: IL-2 D20E/S125I Fc fusion, SEQ ID NO: 192										7.9	Yes	1.7
P-0494: IL-2 D20T/S125I Fc fusion, SEQ ID NO: 193										11.7		0.5
P-0495: IL-2 L19Y/S125I/Q126E Fc fusion, SEQ ID NO: 194										23.5	Yes	0.8
